{"source": "patent US20080176209", "tested_on": "TL-3", "data": [{"substance": "FIV protease (Feline Immunodeficiency Virus protease)", "values": [{"measurement": "enzymatic reaction activity in a kinetic FRET assay with a fluorogenic substrate peptide over a 20 minute time course", "result": "the enzymatic activity was blocked by TL-3"}]}]}
